Measurements: patent publication US20110263454A1, “Methods of Identifying Functional Characteristics of Promoters, Transcription Modifying Proteins and Transcription Modulating Agents” (Salk Institute for Biological Studies, priority 2008, published 2011)

Tests used:
hIRF7 promoter = test: NHR-promoter luciferase screen, hIRF7 promoter; format: cell-based, human; details: for Normalized Luc. act., normalized to control / Luc. act., normalized to lacZ: IRF7 promoter reporter; for Normalized Luc. act., normalized to control: HR without or with its ligand, relative to control; for Luc. act., normalized to lacZ: hormone receptor (HR) without or with its ligand; for hIRF7 promoter reporter activity: transcription factor +/- ligand, control = 1.00
Outline: (§1)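 CV-1 cells were co-transfected with 50 ng NHR (homodimer or NHR/RXR heterodimer), 100 ng promoter-luciferase construct and 50 ng LacZ. Luciferase was normalized to LacZ and to a no-NHR/no-ligand control.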

mGhrelin promoter = test: NHR-promoter luciferase screen, mGhrelin promoter; format: cell-based, mouse; details: for Luc. act., normalized to lacZ / Normalized Luc. act., normalized to control: Table 8, mGhrelin; for Results of assays of transcription factor (+/- ligand) with mGhrelin: Table 6d, luciferase activity relative to control (control = 1.00)
Outline: as §1

hPPARg1 promoter = test: NHR-promoter luciferase screen, hPPARg1 promoter; format: cell-based, human; details: for Luc. act., normalized to lacZ / Normalized Luc. act., normalized to control: PPARG1 promoter, hormone receptor with or without its ligand; for Normalized Luc. act., normalized to control: relative to control; for Results of assays of transcription factor (+/- ligand) with hPPARg1: Table 6d, luciferase activity relative to control (control = 1.00)
Outline: as §1

mPOMC promoter = test: NHR-promoter luciferase screen, mPOMC promoter; format: cell-based, mouse; details: for Results of assays of transcription factor (+/- ligand) with mPOMC: Table 6d, luciferase activity relative to control (control = 1.00); for Luc. act., normalized to lacZ / Normalized Luc. act., normalized to control: mPOMC promoter, HR component with or without ligand; for Normalized Luc. act., normalized to control: relative to control
Outline: as §1

mLeptin promoter = test: NHR-promoter luciferase screen, mLeptin promoter; format: cell-based, mouse; details: for Luc. act., normalized to lacZ / Normalized Luc. act., normalized to control: Table 7, mLeptin; for Results of assays of transcription factor (+/- ligand) with mLeptin: Table 6d, luciferase activity relative to control (control = 1.00)
Outline: as §1

mUCP3 promoter = test: NHR-promoter luciferase screen, mUCP3 promoter; format: cell-based, mouse; details: for Normalized Luc. act., normalized to control / Luc. act., normalized to lacZ: mUCP3 promoter reporter; for Normalized Luc. act., normalized to control: HR without or with its ligand, relative to control; for Luc. act., normalized to lacZ: hormone receptor (HR) without or with its ligand; for mUCP3 promoter reporter activity: transcription factor +/- ligand, control = 1.00
Outline: as §1

B1: Erb: Estrogen Receptor β (NR3A2, ERb), cDNA driver (protein, UniProt Q92731 1-530, looked up)
Estrogen receptor beta: MDIKNSPSSLNSPSSYNCSQSILPLEHGSIYIPSSYVDSHHEYPAMTFYSPAVMNYSIPSNVTNLEGGPGRQTTSPNVLWPTPGHLSPLVVHRQLSHLYAEPQKSPWCEARSLEHTLPVNRETLKRKVSGNRCASPVTGPGSKRDAHFCAVCSDYASGYHYGVWSCEGCKAFFKRSIQGHNDYICPATNQCTIDKNRRKSCQACRLRKCYEVGMVKCGSRRERCGYRLVRRQRSADEQLHCAGKAKRSGGHAPRVRELLLDALSPEQLVLTLLEAEPPHVLISRPSAPFTEASMMMSLTKLADKELVHMISWAKKIPGFVELSLFDQVRLLESCWMEVLMMGLMWRSIDHPGKLIFAPDLVLDRDEGKCVEGILEIFDMLLATTSRFRELKLQHKEYLCVKAMILLNSSMYPLVTATQDADSSRKLAHLLNAVTDALVWVIAKSGISSQQQSMRLANLLMLLSHVRHASNKGMEHLLNMKCKNVVPVYDLLLEMLNAHVLRGCKSSITGSECSPAEDSKSKEGSQNPQSQ
hIRF7 promoter
  Normalized Luc. act., normalized to control: 1.4
  Luc. act., normalized to lacZ: 37.5
  hIRF7 promoter reporter activity: 1.42
mGhrelin promoter
  Luc. act., normalized to lacZ: 47.5
  Normalized Luc. act., normalized to control: 0.9
  Results of assays of transcription factor (+/- ligand) with mGhrelin: 0.91
hPPARg1 promoter
  Luc. act., normalized to lacZ: 45.3
  Normalized Luc. act., normalized to control: 0.7
  Results of assays of transcription factor (+/- ligand) with hPPARg1: 0.66
mPOMC promoter
  Results of assays of transcription factor (+/- ligand) with mPOMC: 1.00
  Luc. act., normalized to lacZ: 69.1
  Normalized Luc. act., normalized to control: 1.0
mLeptin promoter
  Luc. act., normalized to lacZ: 2.5
  Normalized Luc. act., normalized to control: 0.9
  Results of assays of transcription factor (+/- ligand) with mLeptin: 0.86
mUCP3 promoter
  Normalized Luc. act., normalized to control: 1.3
  Luc. act., normalized to lacZ: 0.9
  mUCP3 promoter reporter activity: 1.28

B2: TR2: Testicular Orphan Nuclear Receptor 2 (NR2C1), cDNA driver (protein, UniProt P13056 1-603, looked up)
Nuclear receptor subfamily 2 …: MATIEEIAHQIIEQQMGEIVTEQQTGQKIQIVTALDHNTQGKQFILTNHDGSTPSKVILARQDSTPGKVFLTTPDAAGVNQLFFTTPDLSAQHLQLLTDNSPDQGPNKVFDLCVVCGDKASGRHYGAVTCEGCKGFFKRSIRKNLVYSCRGSKDCIINKHHRNRCQYCRLQRCIAFGMKQDSVQCERKPIEVSREKSSNCAASTEKIYIRKDLRSPLTATPTFVTDSESTRSTGLLDSGMFMNIHPSGVKTESAVLMTSDKAESCQGDLSTLANVVTSLANLGKTKDLSQNSNEMSMIESLSNDDTSLCEFQEMQTNGDVSRAFDTLAKALNPGESTACQSSVAGMEGSVHLITGDSSINYTEKEGPLLSDSHVAFRLTMPSPMPEYLNVHYIGESASRLLFLSMHWALSIPSFQALGQENSISLVKAYWNELFTLGLAQCWQVMNVATILATFVNCLHNSLQQDKMSTERRKLLMEHIFKLQEFCNSMVKLCIDGYEYAYLKAIVLFSPDHPSLENMEQIEKFQEKAYVEFQDYITKTYPDDTYRLSRLLLRLPALRLMNATITEELFFKGLIGNIRIDSVIPHILKMEPADYNSQIIGHSI
hIRF7 promoter
  Normalized Luc. act., normalized to control: 1.0
  Luc. act., normalized to lacZ: 25.8
  hIRF7 promoter reporter activity: 0.98
mGhrelin promoter
  Luc. act., normalized to lacZ: 63.2
  Normalized Luc. act., normalized to control: 1.2
  Results of assays of transcription factor (+/- ligand) with mGhrelin: 1.21
hPPARg1 promoter
  Luc. act., normalized to lacZ: 45.5
  Normalized Luc. act., normalized to control: 0.7
  Results of assays of transcription factor (+/- ligand) with hPPARg1: 0.66
mPOMC promoter
  Results of assays of transcription factor (+/- ligand) with mPOMC: 1.92
  Luc. act., normalized to lacZ: 132.1
  Normalized Luc. act., normalized to control: 1.9
mLeptin promoter
  Luc. act., normalized to lacZ: 3.4
  Normalized Luc. act., normalized to control: 1.1
  Results of assays of transcription factor (+/- ligand) with mLeptin: 1.15
mUCP3 promoter
  Normalized Luc. act., normalized to control: 2.0
  Luc. act., normalized to lacZ: 1.4
  mUCP3 promoter reporter activity: 2.01

B3: TR4: Testicular Orphan Nuclear Receptor 4 (NR2C2), cDNA driver (protein, UniProt P49116 1-596, looked up)
Nuclear receptor subfamily 2 …: MTSPSPRIQIISTDSAVASPQRIQIVTDQQTGQKIQIVTAVDASGSPKQQFILTSPDGAGTGKVILASPETSSAKQLIFTTSDNLVPGRIQIVTDSASVERLLGKTDVQRPQVVEYCVVCGDKASGRHYGAVSCEGCKGFFKRSVRKNLTYSCRSNQDCIINKHHRNRCQFCRLKKCLEMGMKMESVQSERKPFDVQREKPSNCAASTEKIYIRKDLRSPLIATPTFVADKDGARQTGLLDPGMLVNIQQPLIREDGTVLLATDSKAETSQGALGTLANVVTSLANLSESLNNGDTSEIQPEDQSASEITRAFDTLAKALNTTDSSSSPSLADGIDTSGGGSIHVISRDQSTPIIEVEGPLLSDTHVTFKLTMPSPMPEYLNVHYICESASRLLFLSMHWARSIPAFQALGQDCNTSLVRACWNELFTLGLAQCAQVMSLSTILAAIVNHLQNSIQEDKLSGDRIKQVMEHIWKLQEFCNSMAKLDIDGYEYAYLKAIVLFSPDHPGLTSTSQIEKFQEKAQMELQDYVQKTYSEDTYRLARILVRLPALRLMSSNITEELFFTGLIGNVSIDSIIPYILKMETAEYNGQITGASL
hIRF7 promoter
  Normalized Luc. act., normalized to control: 1.9
  Luc. act., normalized to lacZ: 48.8
  hIRF7 promoter reporter activity: 1.85
mGhrelin promoter
  Luc. act., normalized to lacZ: 273.5
  Normalized Luc. act., normalized to control: 5.2
  Results of assays of transcription factor (+/- ligand) with mGhrelin: 5.23
mGhrelin promoter; mGhrelin promoter-luciferase, NHR +/- ligand, control = 1.0
  luciferase/LacZ, mGhrelin (selected results): 5.2
hPPARg1 promoter
  Luc. act., normalized to lacZ: 66.2
  Normalized Luc. act., normalized to control: 1.0
  Results of assays of transcription factor (+/- ligand) with hPPARg1: 0.96
mPOMC promoter
  Results of assays of transcription factor (+/- ligand) with mPOMC: 3.75
  Luc. act., normalized to lacZ: 258.7
  Normalized Luc. act., normalized to control: 3.8
mLeptin promoter
  Luc. act., normalized to lacZ: 7.5
  Normalized Luc. act., normalized to control: 2.6
  Results of assays of transcription factor (+/- ligand) with mLeptin: 2.56
mLeptin promoter; mLeptin promoter-luciferase, NHR +/- ligand, control = 1.0
  luciferase/LacZ, mLeptin (selected results): 2.6
mUCP3 promoter
  Normalized Luc. act., normalized to control: 3.2
  Luc. act., normalized to lacZ: 2.2
  mUCP3 promoter reporter activity: 3.19

B4: HNF4g: Hepatocyte Nuclear Factor γ (NR2A2), cDNA driver (protein, UniProt Q14541 1-408, looked up)
Hepatocyte nuclear factor …: MNTTDNGVNCLCAICGDRATGKHYGASSCDGCKGFFRRSIRKSHVYSCRFSRQCVVDKDKRNQCRYCRLRKCFRAGMKKEAVQNERDRISTRRSTFDGSNIPSINTLAQAEVRSRQISVSSPGSSTDINVKKIASIGDVCESMKQQLLVLVEWAKYIPAFCELPLDDQVALLRAHAGEHLLLGATKRSMMYKDILLLGNNYVIHRNSCEVEISRVANRVLDELVRPFQEIQIDDNEYACLKAIVFFDPDAKGLSDPVKIKNMRFQVQIGLEDYINDRQYDSRGRFGELLLLLPTLQSITWQMIEQIQFVKLFGMVKIDNLLQEMLLGGASNDGSHLHHPMHPHLSQDPLTGQTILLGPMSTLVHADQISTPETPLPSPPQGSGQEQYKIAANQASVISHQHLSKQKQL
hIRF7 promoter
  Normalized Luc. act., normalized to control: 1.2
  Luc. act., normalized to lacZ: 31.7
  hIRF7 promoter reporter activity: 1.20
mGhrelin promoter
  Luc. act., normalized to lacZ: 58.1
  Normalized Luc. act., normalized to control: 1.1
  Results of assays of transcription factor (+/- ligand) with mGhrelin: 1.11
hPPARg1 promoter
  Luc. act., normalized to lacZ: 42.1
  Normalized Luc. act., normalized to control: 0.6
  Results of assays of transcription factor (+/- ligand) with hPPARg1: 0.61
mPOMC promoter
  Results of assays of transcription factor (+/- ligand) with mPOMC: 1.07
  Luc. act., normalized to lacZ: 73.9
  Normalized Luc. act., normalized to control: 1.1
mLeptin promoter
  Luc. act., normalized to lacZ: 2.4
  Normalized Luc. act., normalized to control: 0.8
  Results of assays of transcription factor (+/- ligand) with mLeptin: 0.82
mUCP3 promoter
  Normalized Luc. act., normalized to control: 0.8
  Luc. act., normalized to lacZ: 0.6
  mUCP3 promoter reporter activity: 0.84
